Where a chain is given by its changes, count along the chain named.
Key:
[1] = biological target: T1, PAR1 receptor (1–425 amino acids) Y350A (human) (UniProt P25116)
T1 sequence: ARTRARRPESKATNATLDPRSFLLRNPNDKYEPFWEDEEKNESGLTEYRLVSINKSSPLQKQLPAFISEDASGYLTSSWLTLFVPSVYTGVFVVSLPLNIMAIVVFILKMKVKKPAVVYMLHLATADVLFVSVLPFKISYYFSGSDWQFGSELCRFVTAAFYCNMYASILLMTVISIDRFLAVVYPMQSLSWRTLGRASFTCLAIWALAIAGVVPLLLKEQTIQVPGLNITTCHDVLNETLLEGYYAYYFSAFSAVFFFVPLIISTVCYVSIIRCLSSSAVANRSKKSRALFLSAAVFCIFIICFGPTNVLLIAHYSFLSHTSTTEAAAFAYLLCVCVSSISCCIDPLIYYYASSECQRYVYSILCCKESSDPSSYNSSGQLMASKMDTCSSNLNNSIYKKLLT

[2] = biological target: T2, PAR1 receptor (1–425 amino acids) D256A (human) (UniProt P25116)
T2 sequence: T1 sequence with D235A, A329Y

NanoBiT Gαq–Gγ dissociation in HEK293T cells induced by the synthesized TA peptide; fold decrease of potency against WT PAR1 [1]: 158 fold | NanoBiT Gαq–Gγ dissociation in HEK293T cells induced by the synthesized TA peptide; fold decrease of potency against WT PAR1 [2]: 33 fold
B1: Synthesized TA peptide (SFLLRN) (peptide)
peptide: SFLLRN

Source: publication PMC11443083
